{"source": "patent US20230416371A1", "about": "(Chugai, published 2023)", "binders": {"B1": {"name": "EGL-G1d (H240-G1d/L73-k0) (antibody, human IgG1, kappa)", "heavy": "not shown", "light": "DIQMTQSPSSLSASVGDRVTITCRASQDIHKYIAWYQQKPGQAPRLLIQYTSTLQPGVPSRFSGSGSGTDYTFTISSLQPEDIATYYCLQYEQLRTFGGGTKVEIKRTVAAPSVFIFPPSDEQLKSGTASVVCLLNNFYPREAKVQWKVDNALQSGNSQESVTEQDSKDSTYSLSSTLTLSKADYEKHKVYACEVTHQGLSSPVTKSFNRGEC", "notes": "Anti-human Epiregulin antibody with human IgG1 constant region G1d (C-terminal Lys and Gly deleted); parent of all Fc variants; also called H240-Gld/L73-k0; anti-hEREG control antibody"}, "B2": {"name": "EGL-SDALIE (H240-Kn032/L73-k0//H240-H1032/L73-k0) (antibody, human IgG1, kappa)", "heavy 1": "QDQLVQSGAEVKKPGASVKVSCKASGFNIKDTYIQWVRQAPGQGLEWMGRIDPLRKQTKYREKFEGRVTITADTSTNTAYMELSSLRSEDTAVYYCVRSGREFDYWGQGTLVTVSSASTKGPSVFPLAPSSKSTSGGTAALGCLVKDYFPEPVTVSWNSGALTSGVHTFPAVLQSSGLYSLSSVVTVPSSSLGTQTYICNVNHKPSNTKVDKKVEPKSCDKTHTCPPCPAPELLGGPDVFLFPPKPKDTLMISRTPEVTCVVVDVSHEDPEVKFNWYVDGVEVHNAKTKPREEQYNSTYRVVSVLTVLHQDWLNGKEYKCKVSNKALPLPEEKTISKAKGQPREPQVCTLPPSRDELTKNQVSLWCLVKGFYPSDIAVEWESNGQPENNYKTTPPVLDSDGSFFLYSKLTVDKSRWQQGNVFSCSVMHEALHNHYTQKSLSLSP", "heavy 2": "B2 heavy 1 with C348Y, D355C, W365S, L367A, Y406V", "light": "B1 light", "notes": "Anti-human Epiregulin IgG1 with S239D/A330L/I332E in both CH2 domains and knobs-into-holes in CH3"}, "B3": {"name": "EGL-ART2 (H240-Kn120/L73-k0//H240-H1068/L73-k0) (antibody, human IgG1, kappa)", "heavy 1": "B2 heavy 1 with L233Y, L234Y, G235W, D238M, H267D, S297A, A326D, L329A, E331I", "heavy 2": "QDQLVQSGAEVKKPGASVKVSCKASGFNIKDTYIQWVRQAPGQGLEWMGRIDPLRKQTKYREKFEGRVTITADTSTNTAYMELSSLRSEDTAVYYCVRSGREFDYWGQGTLVTVSSASTKGPSVFPLAPSSKSTSGGTAALGCLVKDYFPEPVTVSWNSGALTSGVHTFPAVLQSSGLYSLSSVVTVPSSSLGTQTYICNVNHKPSNTKVDKKVEPKSCDKTHTCPPCPAPELLGGPSVFLFPPKPKDTLMISRTPEVTCVVVDVSHEEPEVKFNWYVDGVEVHNAKTKPREEQYNSTYRVVSVLTVLHQDWLNGKEYKCKVSNDALPKPIEETISKAKGQPREPQVYTLPPSRCELTKNQVSLSCAVKGFYPSDIAVEWESNGQPENNYKTTPPVLDSDGSFFLVSKLTVDKSRWQQGNVFSCSVMHEALHNHYTQKSLSLSP", "light": "B1 light", "notes": "Anti-human Epiregulin IgG1 with heterodimeric (knobs-into-holes) Fc variant; also called Kn120/H1068"}, "B4": {"name": "EGL-ART5 (H240-Kn462/L73-k0//H240-HI441/L73-k0) (antibody, human IgG1, kappa)", "heavy 1": "QDQLVQSGAEVKKPGASVKVSCKASGFNIKDTYIQWVRQAPGQGLEWMGRIDPLRKQTKYREKFEGRVTITADTSTNTAYMELSSLRSEDTAVYYCVRSGREFDYWGQGTLVTVSSASTKGPSVFPLAPSSKSTSGGTAALGCLVKDYFPEPVTVSWNSGALTSGVHTFPAVLQSSGLYSLSSVVTVPSSSLGTQTYICNVNHKPSNTKVDKKVEPKSCDKTHTCPPCPAPEFQWGPMVFLFPPKPKDVLMISRTPEVTCVVVDVSDEEPEVKFNWYVDGVEVHNAKTKPREEQYNATYRVVSVLPVLHQDWLNGKEYKCKVSNDALPAPIEKTISKAKGQPREPQVCTLPPSRDELTKNQVSLWCLVKGFYPSDIAVEWESNGQPENNYKTTPPVLDSDGSFFLYSKLTVDKSRWQQGNVFSCSVMHEALHNHYTQKSLSLSP", "heavy 2": "B3 heavy 2 with G235A, T249V, S297A, T306P, K329A", "light": "B1 light", "notes": "Anti-human Epiregulin IgG1 with heterodimeric (knobs-into-holes) Fc variant"}, "B5": {"name": "EGL-ART10 (H240-Kn494/L73-k0//H240-HI514/L73-k0) (antibody, human IgG1, kappa)", "heavy 1": "B4 heavy 1 with D325K, I331E", "heavy 2": "B3 heavy 2 with T249V, S297A, T306P, K329A, I331E", "light": "B1 light", "notes": "as for B4"}, "B6": {"name": "EGL-GASDIE (H240-Kn037/L73-k0//H240-H1036/L73-k0) (antibody, human IgG1, kappa)", "heavy 1": "B2 heavy 1 with G235A, L329A", "heavy 2": "B2 heavy 1 with G235A, L329A, C348Y, D355C, W365S, L367A, Y406V", "light": "B1 light", "notes": "Anti-human Epiregulin IgG1 with G236A/S239D/I332E in both CH2 domains and knobs-into-holes in CH3"}, "B7": {"name": "EGL-GASDALIE (H240-GASDALIE/L73-k0) (antibody, human IgG1, kappa)", "heavy": "B2 heavy 1 with G235A, C348Y, W365T", "light": "B1 light", "notes": "Anti-human Epiregulin IgG1 with symmetric G236A/S239D/A330L/I332E"}, "B8": {"name": "EGL-afucosyl (H240-G1d/L73-k_glycomab) (antibody)", "heavy": "not shown", "VL": "DIQMTQSPSSLSASVGDRVTITCRASQDIHKYIAWYQQKPGQAPRLLIQYTSTLQPGVPSRFSGSGSGTDYTFTISSLQPEDIATYYCLQYEQLRTFGGGTKVEIK", "modifications": "afucosylated (fucose-deficient sugar chain) ; Afucosylated (fucose-deficient) N-glycan at Asn297 (EU) of the heavy chain; the letters cannot carry it.", "notes": "Same heavy chain as EGL-G1d, produced in cells that give fucose-deficient antibodies; also called afucosylated antibody"}}, "key": {"[1]": {"biological_target": "T1, human FcγRIIa H (allotype H131) extracellular domain (human, UniProt P12318 34-217)", "T1 construct": "extracellular domain; also called hFcγRIIaH", "T1 sequence (looked up)": "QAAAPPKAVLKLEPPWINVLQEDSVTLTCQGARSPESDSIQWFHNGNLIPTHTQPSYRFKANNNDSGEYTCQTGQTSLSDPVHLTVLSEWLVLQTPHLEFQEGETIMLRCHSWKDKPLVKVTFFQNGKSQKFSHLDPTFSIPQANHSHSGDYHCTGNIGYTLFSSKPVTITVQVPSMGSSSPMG", "assay": "SPR Biacore 8K+; KD for FcγRIIb divided by KD for this FcγR", "method": "(§1) The extracellular domains of FcγRs were produced by the method described in WO2014104165. The interaction between the produced antibodies and human FcγRs was analyzed using Biacore 8K+by the method below. For the running buffer, 50 mM Na-Phosphate, 150 mM NaCl, and 0.05% Tween20 (pH 7.4) was used, and measurement was performed at 25° C. The sensor chip used was a Series S SA chip (GE Healthcare) onto which CaptureSelect Human Fab-kappa Kinetics Biotin Conjugate (Thermo Fisher Scientific) was immobilized. An antibody of interest was captured onto this chip, and each FcγR diluted with the running buffer was allowed to interact with it. The chip was regenerated using 10 mM Glycine-HCl (pH 1.5), and repeatedly used to capture antibodies and perform measurement. The dissociation constants KD (mol/L) of each antibody for FcγRs were calculated using Biacore Insight Evaluation Software, with a steady state affinity model for the dissociation constant for FcγRIIb and a 1:1 Langmuir binding model for the dissociation constants for the other FcγRs (Table 2)."}, "[2]": {"biological_target": "T2, human FcγRIIIa V (allotype V158) extracellular domain (human, UniProt P08637 17-208)", "T2 construct": "extracellular domain; also called hFcγRIIIaV", "T2 sequence (P08637 17-208 F176V)": "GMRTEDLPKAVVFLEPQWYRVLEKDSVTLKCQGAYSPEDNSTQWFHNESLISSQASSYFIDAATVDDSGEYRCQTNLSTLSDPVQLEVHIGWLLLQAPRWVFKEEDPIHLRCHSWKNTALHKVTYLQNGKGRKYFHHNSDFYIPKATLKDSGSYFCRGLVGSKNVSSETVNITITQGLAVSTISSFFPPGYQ", "assay": "SPR Biacore 8K+; KD of G1d divided by KD of this antibody", "method": "as §1"}, "[3]": {"biological_target": "T3, human FcγRIIIa F (allotype F158) extracellular domain (human, UniProt P08637 17-208)", "T3 construct": "extracellular domain; also called hFcγRIIIaF", "T3 sequence (P08637 17-208)": "as the sequence (P08637 17-208 F176V) above, with V160F counted along it", "assay": "SPR Biacore 8K+, 25 C, antibody captured, FcγR as analyte, 1:1 Langmuir model", "method": "as §1"}, "[4]": {"biological_target": "T3, human FcγRIIIa F (allotype F158) …", "assay": "SPR Biacore 8K+; KD for FcγRIIb divided by KD for this FcγR", "method": "as §1"}, "[5]": {"biological_target": "T3, human FcγRIIIa F (allotype F158) …", "assay": "SPR Biacore 8K+; KD of G1d divided by KD of this antibody", "method": "as §1"}, "[6]": {"biological_target": "T4, human FcγRIIb extracellular domain (human, UniProt P31994 43-217)", "T4 construct": "extracellular domain; also called hFcγRIIb", "T4 sequence (looked up)": "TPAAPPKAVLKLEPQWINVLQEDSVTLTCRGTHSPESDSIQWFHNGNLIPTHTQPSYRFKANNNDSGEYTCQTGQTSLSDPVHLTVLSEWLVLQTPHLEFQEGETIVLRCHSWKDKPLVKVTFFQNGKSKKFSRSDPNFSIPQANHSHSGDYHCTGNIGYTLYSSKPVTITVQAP", "assay": "SPR Biacore 8K+, 25 C, antibody captured, FcγR as analyte, steady state affinity model", "method": "as §1"}, "[7]": {"biological_target": "T1, human FcγRIIa H (allotype H131) …", "assay": "SPR Biacore 8K+, 25 C, antibody captured, FcγR as analyte, 1:1 Langmuir model", "method": "as §1"}, "[8]": {"biological_target": "T4, human FcγRIIb extracellular domain", "assay": "SPR Biacore 8K+; KD of G1d divided by KD of this antibody", "method": "as §1"}, "[9]": {"biological_target": "T1, human FcγRIIa H (allotype H131) …", "assay": "SPR Biacore 8K+; KD of G1d divided by KD of this antibody", "method": "as §1"}, "[10]": {"biological_target": "hFcγRIIIaV on hFcγRIIIaV-expressing Jurkat cells (human, UniProt P08637 17-254)", "sequence (P08637 17-254, form in doubt)": "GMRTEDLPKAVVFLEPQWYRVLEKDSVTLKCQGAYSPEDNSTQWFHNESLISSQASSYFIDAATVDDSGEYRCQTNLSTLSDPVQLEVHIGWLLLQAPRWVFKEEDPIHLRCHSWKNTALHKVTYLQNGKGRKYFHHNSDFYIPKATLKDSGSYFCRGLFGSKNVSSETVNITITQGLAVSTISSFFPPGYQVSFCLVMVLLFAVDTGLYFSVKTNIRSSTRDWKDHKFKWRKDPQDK", "assay": "cell-based or functional assay"}, "[11]": {"biological_target": "T2, human FcγRIIIa V (allotype V158) …", "assay": "SPR Biacore 8K+, 25 C, antibody captured, FcγR as analyte, 1:1 Langmuir model", "method": "as §1"}}, "note": "Positions count from the first letter of the chain named. In names and notes the source's numbering stands."}
{"binder": "B1", "values": [{"measurement": "A/I ratio (KD for FcγRIIb divided by KD for each FcγR)", "setting": "[1]", "value": 6.9}]}
{"binder": "B2", "values": [{"measurement": "Relative value to KD between G1d and hFcγRs", "setting": "[2]", "value": 36.6, "unit": "times"}, {"measurement": "Kd", "setting": "[3]", "value": 26.5, "unit": "nM"}]}
{"binder": "B3", "values": [{"measurement": "A/I ratio (KD for FcγRIIb divided by KD for each FcγR)", "setting": "[4]", "value": 58.4}]}
{"binder": "B4", "values": [{"measurement": "A/I ratio (KD for FcγRIIb divided by KD for each FcγR)", "setting": "[4]", "value": 387}]}
{"binder": "B5", "values": [{"measurement": "Relative value to KD between G1d and hFcγRs", "setting": "[5]", "value": 1270, "unit": "times"}]}
{"binder": "B6", "values": [{"measurement": "Kd", "setting": "[6]", "value": 12.5, "unit": "nM"}]}
{"binder": "B7", "values": [{"measurement": "Kd", "setting": "[7]", "value": 152, "unit": "nM"}]}
{"binder": "B8", "values": [{"measurement": "Relative value to KD between G1d and hFcγRs", "setting": "[8]", "value": 1.8, "unit": "times"}, {"measurement": "Relative value to KD between G1d and hFcγRs", "setting": "[9]", "value": 1.1, "unit": "times"}, {"measurement": "EC50 value of hFcγRIIIaV-mediated reporter gene induction activity", "setting": "[10]", "value": 5.16, "unit": "ng/mL"}, {"measurement": "Kd", "setting": "[6]", "value": 5850, "unit": "nM"}, {"measurement": "Kd", "setting": "[11]", "value": 18, "unit": "nM"}]}
